Test results: US6710030B1, “Contortrostain (CN) and methods for its use in preventing metastasis and other conditions” (University of Southern California, priority 1993, dated 2004)

System: MDA-MB-435 cells
Assay: Phosphotyrosine immunoblot, MDA-MB-435 cells
Format: cell-based, human
Experimental: Cell culture, preparation and stimulation—T24 cells were maintained in RPMI 1640 medium containing 5% fetal bovine serum, and MDA-MB-435 and 293 cells were maintained in Dulbecco's modified Eagle's medium with 10% serum at 37° C. in 5% CO2. Cells were washed with phosphate-buffered saline (PBS) and starved in the appropriate serum-free medium for 6 h at 37° C. Cells were detached by brief treatment with 0.05% trypsin/0.02% EDTA in PBS and collected by centrifugation, resuspended in soybean trypsin inhibitor (1 mg/ml in serum-free medium), and washed in 2% bovine serum albumin/serum-free medium. Cells were maintained in suspension for 1 h in 2% bovine serum albumin/serum-free medium at 37° C. with end-over-end agitation. Quiescent cells (3×10^6/ml) were treated with disintegrins or other reagents while in suspension, or were allowed to adhere to Matrigel (Becton Dickinson, Bedford, Mass.) diluted 1:100 with serum-free medium during treatment.
Lysate preparation and immunoprecipitation—Suspended and adherent cells were washed twice with cold PBS and lysed in cold lysis buffer (50 mM Tris, pH 8.0, 150 mM NaCl, 1% Nonidet P-40, 0.5% deoxycholate, 0.1% SDS, protease inhibitor cocktail, 1 mM sodium pyrophosphate, 1 mM sodium orthovanadate, 50 mM sodium fluoride). After 10-15 min incubation on ice, insoluble material was removed by centrifugation at 14,000 RPM in a microcentrifuge for 15 min. Supernatants were collected and total protein concentrations standardized by the BCA protein assay (Pierce, Rockford, Ill.). Immunoprecipitation was carried out by incubating whole cell lysates (200 μg total protein) with 1.25 μg anti-FAK or anti-CAS mAb 4-6 h at 4° C. followed by 20 μl protein G-agarose overnight at 4° C. Immunoprecipitates were washed 4 times in lysis buffer without inhibitors and dissociated by adding SDS-PAGE sample buffer and boiling 5 min. Whole cell lysates (30 μg total protein) or immunoprecipitates were resolved by 7.5% SDS-polyacrylamide gel electrophoresis and transferred to nitrocellulose membranes.
Immunoblotting—Membranes were blocked with 5% nonfat milk/Tris-buffered saline/0.1% Tween 20 (blocking buffer) 1 h at room temperature or overnight at 4° C. Primary antibody incubations were performed in blocking buffer for 1 h at room temperature. After washing in Tris-buffered saline/0.1% Tween 20, membranes were incubated with horseradish peroxidase-conjugated secondary antibody in blocking buffer 1 h at room temperature. Membranes were washed extensively. Inimunoblots were developed using Super Signar West Pico Chemiluminescent Substrate from Pierce. Densitometry was performed using UN-SCAN-IT™, software (Silk Scientific, Orem, Utah))

Molecule	stimulation of tyrosine phosphorylation (10 μg/ml, data not shown)	effect on contortrostatin (10 nM)-induced tyrosine phosphorylation (1 μM, added simultaneously, 10 min)	effect alone on tyrosine phosphorylation (concentrations up to 1 μM)
monomeric vitronectin: soluble monomeric vitronectin (protein, UniProt P04004 20-478, looked up) Vitronectin: DQESCKGRCTEGFNVDKKCQCDELCSYYQSCCTDYTAECKPQVTRGDVFTMPEDEYTVYDDGEEKNNATVHEQVGGPSLTSDLQAQSKGNPEQTPVLKPEEEAPAPEVGASKPEGIDSRPETLHPGRPQPPAEEELCSGKPFDAFTDLKNGSLFAFRGQYCYELDEKAVRPGYPKLIRDVWGIEGPIDAAFTRINCQGKTYLFKGSQYWRFEDGVLDPDYPRNISDGFDGIPDNVDAALALPAHSYSGRERVYFFKGKQYWEYQFQHQPSQEECEGSSLSAVFEHFAMMQRDSWEDIFELLFWGRTSAGTRQPQFISRDWHGVPGQVDAAMAGRIYISGMAPRPSLAKKQRFRHRNRKGYRSQRGHSRGRNQNSRRPSRATWLSLFSSEESNLGANNYDDYRMDWLVPATCEPIQSVFFFSGDKYYRVNLRTRRVDTVDPPYPRSIAQYWLGCPAPGHL	failed to stimulate tyrosine phosphorylation		
flavoridin: monomeric disintegrin obtained from Sigma (protein) GEECDCGSPSNPCCDAATCKLRPGAQCADGLCCDQCRFKKKRTICRIARGDFPDDRCTGLSNDCPRWNDL		completely abrogated	no effect on tyrosine phosphorylation
